Experimental data published in paper PMC10368991, “LolA and LolB from the plant-pathogen Xanthomonas campestris forms a stable heterodimeric complex in the absence of lipoprotein” (Frontiers in Microbiology, 2023).

Target: T1, Xanthomonas campestris pv. campestris (Xcc) LolB, periplasmic variant (Xanthomonas campestris pv. campestris …)
T1 chain: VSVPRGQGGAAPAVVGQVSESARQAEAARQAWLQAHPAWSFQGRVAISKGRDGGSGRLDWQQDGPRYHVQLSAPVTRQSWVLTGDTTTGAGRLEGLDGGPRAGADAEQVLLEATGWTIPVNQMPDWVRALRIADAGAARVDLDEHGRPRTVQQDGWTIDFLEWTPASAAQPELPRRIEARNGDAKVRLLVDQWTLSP
Test: ITC; LolA 1 mM in the syringe, LolB 0.1 (unit inferred) in the cell; 25.0 °C; 20 mM TRIS-HCl pH 7.8, 150 mM NaCl, 5% glycerol; 1:1 binding model; triplicate
Details: both partners purified

B1: Xanthomonas campestris pv. campestris (Xcc) LolA (natural protein)
chain: GARQELDTFTRGLKGLDGQFSQRVTDANGRVKENSSGRVALATPRQFRWEYAKPYKQLIVADGKKVWVFDPDLEQVTVRAQGSEEQNSPLVALIDPTRLDKQYDVSEEAAPRDGLQWLSLTPKVDTDASFQMASLGFGKDGLAKMEVVDAVGQRTAISFSGWKRNPAFAADTFRYTPGKGVDVVGDAQ
Kd: 14.6 ± 1 µM
dH: -6.82 ± 0.126 kJ/mol
stoichiometry N: 0.96 ± 0.04
